Read-outs that look alike come from different tables or passages of the source.
Tests used:
[1] = target: binding of SNA to plasma VWF (Sambucus nigra, UniProt Q41358); conditions: for Inhibition of binding of SNA to plasma VWF: plasma VWF:Ag 5 mU/mL
[2] = target: T1, Sambucus nigra agglutinin (SNA) (Sambucus nigra, UniProt Q41358); conditions: plasma pool 2.88-0.18 mU VWF:Ag/mL; rVWF 311-19 mU/mL
[3] = target: T1, Sambucus nigra agglutinin (SNA); conditions: for Change of SNA binding after neuraminidase treatment: neuraminidase 0-20 mU/mL, 2 hours 37° C.
[4] = system: Maackia amurensis agglutinin (MAA); experiment: MAA binding of plasma VWF and rVWF after neuraminidase treatment; conditions: for Binding to MAL after addition of neuraminidase: neuraminidase 1-20 mU/mL
From the text: In order to confirm that the recombinant protein did express sialic acid moieties, but in a different configuration than the plasma derived sialic acid, a binding assay that measures binding of protein to α2,3-linked neuraminic acid is used to detect the recombinantly expressed α2,3-linked neuraminic acid on the recombinant protein. The lectin, Maackia amurensis agglutinin (MAA), which binds α2,3-linked neuraminic acid, was used to determine if desialylation of rVWF occurred in the presence of neuraminidase.
Anti-vWF plates were prepared as above. Both the human plasma pool and the rVWF preparation were diluted to obtain VWF:Ag concentrations of 5 mU/mL and 2.5 mU/mL. 100 μL/well of the sample dilutions were loaded to the coated, periodate-oxidized plates and incubated for 60 minutes at RT and washed afterwards. The neuraminidase digest was then carried out on the plate. Neuraminidase (Sigma) was used at the concentrations of 0, 1, 5, 10 and 20 mU/mL. Afterwards, the plates were washed and incubated with the biotinylated MAA (Vector, 1 μg/mL) for 60 minutes at RT. The incubation was terminated by washing, after which the plates were incubated 30 minutes at RT with streptavidin peroxidase (DakoCytomation, 1/4000). After a final washing step, the bound peroxidase was measured as previously described.

[5] = target: T1, Sambucus nigra agglutinin (SNA); conditions: mean of six tests, human plasma pool = 100%

Sequence of binding of SNA to plasma VWF (Q41358 309-570 limits assumed): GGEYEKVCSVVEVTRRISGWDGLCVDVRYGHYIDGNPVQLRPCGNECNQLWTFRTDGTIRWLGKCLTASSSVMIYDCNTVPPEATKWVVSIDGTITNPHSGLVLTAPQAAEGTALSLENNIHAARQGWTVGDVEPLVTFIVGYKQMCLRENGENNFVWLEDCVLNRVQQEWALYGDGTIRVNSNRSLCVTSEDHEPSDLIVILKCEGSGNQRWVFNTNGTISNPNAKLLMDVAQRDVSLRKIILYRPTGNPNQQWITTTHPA
Sequence of binding of SNA to plasma VWF (Q41358 29-289 partner limits assumed): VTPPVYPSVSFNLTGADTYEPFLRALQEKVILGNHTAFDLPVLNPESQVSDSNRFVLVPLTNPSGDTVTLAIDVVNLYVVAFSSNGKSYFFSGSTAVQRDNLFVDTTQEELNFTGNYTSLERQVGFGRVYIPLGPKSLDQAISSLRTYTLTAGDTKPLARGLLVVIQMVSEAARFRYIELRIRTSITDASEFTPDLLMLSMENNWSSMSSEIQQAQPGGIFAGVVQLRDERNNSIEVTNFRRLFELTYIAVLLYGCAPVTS

In the case of `CC(=O)N[C@H]1[C@H]([C@H](O)[C@H](O)CO)O[C@@](O[C@H]2[C@@H](O)[C@@H](CO)O[C@@H](O[C@H]3[C@H](O)[C@@H](O)C(O)O[C@@H]3CO)[C@@H]2O)(C(=O)O)C[C@@H]1O` (some centres unmarked) [3′-sialyllactose], the “Effect on binding of SNA to plasma VWF” value ([1]; assay as in Example 5) is reported as “no effect”.
In the case of `CC(=O)N[C@H]1[C@H]([C@H](O)[C@H](O)CO)O[C@@](OC[C@H]2O[C@@H](O[C@H]3[C@H](O)[C@@H](O)[C@H](O)O[C@@H]3CO)[C@H](O)[C@@H](O)[C@H]2O)(C(=O)O)C[C@@H]1O` [6′-sialyllactose], the “Inhibition of binding of SNA to plasma VWF” value ([1]; 10 μM) is reported as “approximately 25%” and the “Inhibition of binding of SNA to plasma VWF” value ([1]; 100 μM) is reported as about 75%.
In the case of “CHO cell-derived rVWF: recombinantly produced von Willebrand factor from Chinese hamster ovary (CHO) cells”, the SNA binding [2] is reported as “no binding”, the “Change of SNA binding after neuraminidase treatment” value ([3]; VWF:Ag 5 and 2.5 mU/mL) is reported as “not altered” and the SNA binding ([3]; without neuraminidase, VWF:Ag 5 and 2.5 mU/mL) is reported as “no binding”. For the same compound, the “Binding to MAL after addition of neuraminidase” value [4] was “abolished” and the MAA lectin binding ([4]; without neuraminidase) was “bound”.
“plasma VWF: plasma derived von Willebrand factor, measured in a human plasma pool” was tested, and the SNA binding [2] was “clear dose dependent relation”, the “Change of SNA binding after neuraminidase treatment” value ([3]; VWF:Ag 5 and 2.5 mU/mL) was “reduced proportional to the concentration of the neuraminidase applied” and the “SNA binding relative to initially measured” value ([3]; neuraminidase 20 mU/mL) was “less than 95%”. The “SNA binding Mean (SNA binding measured)” value ([5]; Example 7, 0 U rVWF spiked) was 137.2%, the “SNA binding Mean (SNA binding found)” value ([5]; Example 8, 0 rVWF spiked) was 123.5% and the “Binding to MAL after addition of neuraminidase” value [4] was “abolished”.

Source: patent US8828676B2, “Methods for differentiating plasma-derived protein from recombinant protein in a sample” (Baxter International Inc., priority 2007, dated 2014)
